T1: Ycg1 (6–932, Δ499–555)-Brn1 (384–529) (S. cerevisiae, UniProt Q06680 6-932; P38170 384-529, Δ499–555)
T1 construct: Ycg1, condensin HAWK subunit, S. cerevisiae, residues 6-932 with 499-555 deleted; Brn1, condensin kleisin subunit, S. cerevisiae, residues 384-529; Construct was a gift of Christian Haering (Kschonsak et al, 2017); also called Ycg1-Brn1; source: E. coli, purified (as described previously, Kschonsak et al, 2017)
T1 sequence (looked up) 1: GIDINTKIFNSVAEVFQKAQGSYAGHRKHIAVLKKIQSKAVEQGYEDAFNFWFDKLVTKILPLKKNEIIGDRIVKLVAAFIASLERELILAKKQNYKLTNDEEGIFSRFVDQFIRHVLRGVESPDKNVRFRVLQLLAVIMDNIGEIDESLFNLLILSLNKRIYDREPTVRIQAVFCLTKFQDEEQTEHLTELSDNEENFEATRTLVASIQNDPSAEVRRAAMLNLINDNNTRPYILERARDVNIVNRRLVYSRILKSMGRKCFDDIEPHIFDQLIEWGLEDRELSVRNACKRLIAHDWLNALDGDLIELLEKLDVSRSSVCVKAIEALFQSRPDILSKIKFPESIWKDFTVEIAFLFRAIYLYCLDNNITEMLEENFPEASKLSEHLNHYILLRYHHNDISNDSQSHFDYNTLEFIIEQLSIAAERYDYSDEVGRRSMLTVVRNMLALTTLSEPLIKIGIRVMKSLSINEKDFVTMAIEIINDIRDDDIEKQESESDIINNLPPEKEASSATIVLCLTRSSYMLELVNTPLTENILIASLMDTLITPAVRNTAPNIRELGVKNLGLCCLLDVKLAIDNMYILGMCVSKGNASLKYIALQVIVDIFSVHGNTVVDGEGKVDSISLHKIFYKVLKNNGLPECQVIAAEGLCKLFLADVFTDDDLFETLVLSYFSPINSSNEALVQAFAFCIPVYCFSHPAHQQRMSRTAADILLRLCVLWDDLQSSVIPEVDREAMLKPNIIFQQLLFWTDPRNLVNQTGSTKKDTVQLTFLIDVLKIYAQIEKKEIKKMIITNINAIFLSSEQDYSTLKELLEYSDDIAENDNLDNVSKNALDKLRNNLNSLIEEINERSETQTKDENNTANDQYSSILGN
T1 sequence (looked up) 2: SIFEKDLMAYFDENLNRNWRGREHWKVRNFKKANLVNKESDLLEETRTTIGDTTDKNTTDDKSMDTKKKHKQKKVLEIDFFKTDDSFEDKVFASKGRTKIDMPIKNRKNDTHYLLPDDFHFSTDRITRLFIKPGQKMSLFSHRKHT

B1: V5-Sgo1 (FL) (natural protein, S. cerevisiae, UniProt Q08490 1-590, looked up)
chain: MPKRKIAPNKESSRRTVSHDDLTPQIQEFQNLMDLESQKVENIRQSYSRQNSLLAKDNSILKIKVNSLEKKISQLVQENVTLRSKTSISEAIYRERLSNQLQVIENGIIQRFDEIFYMFENVRKNENLPSSSLRTMLKRTSSRSRSCSLSSPTYSKSYTRLSNHENNLSHESSFNKDDGPDLEPKAKKRKSSRRQSMFVSTSLEPEDETGENEPMMENSSVEVPAESHESAQVEETIDALNPEEENSDSVSNFTNSIIEYSIPEENPTEPEHSSSKLEIFNDSTNMLSTVPSNPLPLPLPGPSATLPTTTSDASTVYPSSSSSTNSHPKTKIKHSMKPPRIELKKKVIDEVMPVSNMSSNSEISFTRTRRTRGKAVDYTLPSLRAKMRRPSEKLVDATTVIDIHDLQVSKRNRETSHKRKSLSQDSIPDEPQLREVVVSKDYGTPKGKKTEDEIHEDTAHLMTTSNNNSNNKNEKKLTSNNSPKKSSPLLDITNKSENKKKSTRTKKLFKNAIVNNLSDENSTTRPSKSSKGTSNNNNNYNNFDNNNSNINNVNNKSVSFRLNEDDLAVFDLFGNGKAVKHQPKTYRTKK
notes: Sgo1 (shugoshin), S. cerevisiae, full length; also called full-length V5-Sgo1; Sc Sgo1; source: protease-deficient yeast strain (AM8184), purified (Ni2+ IMAC, Superose 6 gel filtration)
B2: GFP-Sgo1 (350–590) (domain or fragment, S. cerevisiae, UniProt Q08490 350-590, looked up)
chain: EVMPVSNMSSNSEISFTRTRRTRGKAVDYTLPSLRAKMRRPSEKLVDATTVIDIHDLQVSKRNRETSHKRKSLSQDSIPDEPQLREVVVSKDYGTPKGKKTEDEIHEDTAHLMTTSNNNSNNKNEKKLTSNNSPKKSSPLLDITNKSENKKKSTRTKKLFKNAIVNNLSDENSTTRPSKSSKGTSNNNNNYNNFDNNNSNINNVNNKSVSFRLNEDDLAVFDLFGNGKAVKHQPKTYRTKK
notes: Sgo1 (shugoshin), S. cerevisiae, residues 350-590; also called C-terminal region of Sgo1 (residues 350–590); C-Sgo1
B3: V5-Sgo1 (350–590) (domain or fragment, S. cerevisiae, UniProt Q08490 350-590, looked up)
chain: B2 chain
notes: Sgo1 (shugoshin), S. cerevisiae, residues 350-590; also called recombinant C-terminal region of Sgo1 (350–590); source: protease-deficient yeast strain (AM8184), galactose induced, purified (Ni2+ IMAC, Superose 6 gel filtration)
B4: GFP-Sgo1 (472-530) (domain or fragment, S. cerevisiae, UniProt Q08490 472-530, looked up)
chain: KNEKKLTSNNSPKKSSPLLDITNKSENKKKSTRTKKLFKNAIVNNLSDENSTTRPSKSS
notes: Sgo1 (shugoshin), S. cerevisiae, residues 472-530; also called Recombinant Sgo1 (472-530), wild type; source: E. coli BL21(DE3), purified (Ni-NTA resin, dialysis)

How the values were obtained:
Details in all cases: both partners purified
[1] = target: T2, pentameric condensin holo-complex (S. cerevisiae, UniProt P38989 1-1170; Q12267 1-1418; P38170 1-754; Q06680 1-1035; Q06156 1-1176); assay: co-IP; two purified recombinant proteins with anti-V5-coupled dynabeads (V5-Sgo1 held), 2.5 h; 25 mM HEPES pH 7.5, 500 mM NaCl, 10% glycerol, 1 mM DTT, 0.1% NP-40; silver-stained SDS-PAGE and immunoblot
T2 construct: Smc2, condensin subunit, S. cerevisiae; Smc4, condensin subunit, S. cerevisiae; Brn1, condensin kleisin subunit, S. cerevisiae; Ycg1, condensin HAWK subunit, S. cerevisiae; Ycs4, condensin HAWK subunit, S. cerevisiae; Constructs were a gift (St-Pierre et al, 2009); also called Sc condensin complex; condensin (Brn1-6HA); source: purified from yeast (as described previously, Kschonsak et al, 2017); …

[2] = target: T1, Ycg1 (6–932, Δ499–555)-Brn1 (384–529); assay: co-IP; two purified recombinant proteins with anti-GFP-coupled dynabeads (GFP-Sgo1 variants held), 2.5 h; 25 mM HEPES pH 7.5, 500 mM NaCl, 10% glycerol, 1 mM DTT, 0.1% NP-40; silver-stained SDS-PAGE
[3] = target: T1, Ycg1 (6–932, Δ499–555)-Brn1 (384–529); assay: SEC; Sgo1 (350–590) with Ycg1 (6–932, Δ499–555)-Brn1 (384–529); Superdex200 10/300 24 ml column; 10 mM Tris-HCl pH 7.5, 250 mM NaCl, 5% glycerol, 0.001% Tween-20

Binder	binding result [1]	binding result [2]	binding result [3]
B1	binds		
B2		binds	
B3	binds		binds
B4		binds	

Source: paper PMC11791182, “Molecular mechanism targeting condensin for chromosome condensation” (The EMBO Journal, 2024)
